Assays:
[1] = molecular target: T1, RSV postfusion F (postF), subtype A (respiratory syncytial virus subtype A, UniProt P03420 26-513); assay: BLI
T1 construct: also called Postfusion subtype A; F deltaFP

[2] = molecular target: T2, RSV prefusion F (preF), subtype B (respiratory syncytial virus subtype B); assay: BLI, IgG
T2 construct: also called Prefusion subtype B

Binder	binding result [1]	Kd [2] [nM]
ADI-25598 (antibody, V domains shown, full-length IgG) VH: QVQLQESGPGLVKPSETLSLTCTVSPPSISSSSYYWGWIRQPPGKGLEWIGSIYYSGSTYYNPSLKSRVTISVDTSKNQFSLKLSSVTAADTAVYYCARPDSSGAFDIWGQGTMVTVSS VL: not shown	no binding	
ADI-22765 (antibody, V domains shown, full-length IgG) VH: EVQLVESGGGLVKPGGSLRLSCAASGFTFSSYSMNWVRQAPGKGLEWVSSISSSSSYIYYADSVKGRFTISRDNAKNSLYLQMNSLRAEDTAVYYCARDRGDGYNYDYWGQGTLVTVSS VL: QPVLTQPPSVSGAPGQRVTISCTGSSSNIGAGYDVHWYQQLPGTAPKLLIYGNSNRPSGVPDRFSGSKSGTSASLAITGLQAEDEADYYCQSYDSSLSVVFGGGTKVTVL	no binding	
ADI-25542 (antibody, V domains shown, full-length IgG) VH: not shown VL: QTVVTQEPSFSVSPGGTVTLTCGLSSGSVSTSYYPSWYQQTPGQAPRTLIYSTNTRSSGVPDRFSGSILGNKAALTITGAQADDESDYYCVLYMGSGIWVFGGGTKVTVL	no binding	
ADI-24795 (antibody, V domains shown, full-length IgG; also called Ab 363) VH: EVQLVESGGGLVKPGGSLRLSCAASGFTFSSYSMNWVRQAPGKGLEWVSSISSSSSYIYYADSVKGRFTISRDNAKNSLYLQMNSLRAEDTAVYYCARVGYSSSSGAFDYWGQGTLVTVSS VL: QSVLTQPPSVSGAPGQRVTISCTGSSSNIGAGYDVHWYQQLPGTAPKLLIYGNSNRPSGVPDRFSGSKSGTSASLAITGLQAEDEADYYCQSYDSSLSGSVFGGGTKVTVL	no binding	34.2
ADI-25548 (antibody, V domains shown, full-length IgG) VH: EVQLVESGGGLIQPGGSLRLSCAASGFTVSSNYMSWVRQAPGKGLEWVSVIYSGGSTYYADSVKGRFTISRDNSKNTLYLQMNSLRAEDTAVYYCARGPQFGVSYSSGWYSFDYWGQGTLVTVSS VL: QSVLIQPRSVSGSPGQSVTISCTGTSSDVGGYNYVSWYQQHPGKAPKLMIYDVSKRPSGVPDRFSGSKSGNTASLTISGLQAEDEADYYCCSYAGSYTFVVFGGGTKLTVL	no binding	
ADI-22776 (antibody, V domains shown, full-length IgG) VH: EVQLLESGGGLVKPGGSLRLSCAASGFTFSDYYMSWIRQAPGKGLEWVSYISSSGSTIYYADSVKGRFTISRDNAKNSLYLQMNSLRAEDTAVYYCAREIGGSYTGGAFDIWGQGTMVTVSS VL: SYELTQPPSVSVAPGQTARITCGGNNIGSKSVHWYQQKPGQAPVLVVYDDSDRPSGIPERFSGSNSGNTATLTISRVEAGDEADYYCQVWDSSSDHVVFGGGTKVTVL	no binding	
ADI-22769 (antibody, V domains shown, full-length IgG) VH: QVQLVQSGGGLVQPGGSLRLSCAASGFTFSDHYMDWVRQAPGKGLEWVGRTRNKANSYTTEYAASVKGRFTISRDDSKNSLYLQMNSLKTEDTAVYYCARVGYYYYYGMDVWGQGTTVTVSS VL: not shown	no binding	
ADI-24845 (antibody, V domains shown, full-length IgG) VH: EVQLVESGGGLVKPGGSLRLSCAASGFTFSSYSMNWVRQAPGKGLEWVSSISSSSSYIYYADSVKGRFTISRDNAKNSLYLQMNSLRAEDTAVYYCARDYCSGGSCYLAAFDIWGQGTTVTVSS VL: QPVLTQPASVSGSPGQSITISCTGTSSDVGGYNYVSWYQQHPGKAPKLMIYEVSNRPSGVSNRFSGSKSGNTASLTISGLQAEDEADYYCSSYTSSSTPVVFGGGTKLTVL	no binding	36.7
ADI-25468 (antibody, V domains shown, full-length IgG) VH: QVQLVQSGAEVKKPGESLKISCKGSGYSFTSYWIGWVRQMPGKGLEWMGIIYPGDSDTRYSPSFQGQVTISADKSISTAYLQWSSLKASDTAMYYCARHVGQVYCSSTSCYTSREYYFDYWGQGTLVTVSS VL: not shown	no binding	
ADI-24858 (antibody, V domains shown, full-length IgG) VH: EVQLLESGGGLVKPGGSLRLSCAASGFTFSSYSMNWVRQAPGKGLEWVSSISSSSSYIYYADSVKGRFTISRDNAKNSLYLQMNSLRAEDTAVYYCARGGYSYGYSFDYWGQGTLVTVSS VL: not shown	no binding	26.3
